Measurements reported in article PMC3510474, “Distinct gating mechanisms revealed by the structures of a multi-ligand gated K^+ channel” (eLife, 2012).
Blank lines part the entries; values can stand above or below the compound they belong to.

Legend:
[1] = biological target: full-length GsuK channel, L97D mutant (Geobacter sulfurreducens); experiment: crystal structure; full-length channel in DM with E. coli polar lipids, about 6 mg/ml, 20°C, 13–18% PEG3350, 250–500 mM KSCN, 100 mM CHES pH 9.0; space group C2, four subunits in the asymmetric unit as two half channels; L97D also co-crystallised with 1 mM ADP or NAD+
[2] = biological target: T1, GsuK (Geobacter sulfurreducens, UniProt Q74FS9, E52A/L97D, form not given); experiment: X-ray crystal structure, […] Å (co-crystallization); assay type: binding; conditions: 1 mM NAD+, pH 9.0; Ca2+-bound closed gating ring; nucleotide site on RCK2, nicotinamide beneath RCK1 helix αF; partial occupancy; allosteric
T1 construct: gene GSU0527; full-length channel from Ala9 with extra N-terminal MQRGS; C-terminal His-tag cut by thrombin; E. coli BL21(DE3); tetramer; model residues 17-564

[3] = biological target: full-length GsuK channel, wild type (with E52A and Q77E or R) (Geobacter sulfurreducens); experiment: SEC; Superdex-200 (10/30) in 20 mM CHES pH 9.0, 150 mM KSCN, 0.1 mg/ml E. coli polar lipid, 2 mM DTT, 4 mM DM (full-length GsuK channel)
[4] = biological target: full-length GsuK channel, wild type (with E52A and Q77E or R) (Geobacter sulfurreducens); experiment: crystal structure; full-length channel in DM with E. coli polar lipids, about 6 mg/ml, 20°C, 13–18% PEG3350, 250–500 mM KSCN, 100 mM CHES pH 9.0; space group C2, four subunits in the asymmetric unit as two half channels; L97D also co-crystallised with 1 mM ADP or NAD+
[5] = biological target: GsuK intracellular subunit (Geobacter sulfurreducens); experiment: SEC; Superdex-200 (10/30) in 50 mM Tris–HCl pH 8.0, 250 mM KCl, 2 mM DTT, 4 mM LDAO (GsuK intracellular subunit)
[6] = biological target: GsuK intracellular subunit (Geobacter sulfurreducens); experiment: crystal structure; GsuK intracellular subunit, about 8 mg/ml in LDAO, sitting drop at 20°C, 20–23% PEG3350, 120 mM KCl, 80 mM NaNO3, 1% glycerol, 100 mM Bis-Tris propane pH 8.5; space group I222, four subunits forming a gating ring in the asymmetric unit; 3.0 Å
[7] = biological target: T1, GsuK; experiment: X-ray crystal structure, […] Å (co-crystallization); assay type: binding; conditions: 1 mM ADP, pH 9.0; Ca2+-bound closed gating ring; nucleotide site on RCK2; allosteric

T1 sequence (Q74FS9 entry or part of it E52A/L97D, form open): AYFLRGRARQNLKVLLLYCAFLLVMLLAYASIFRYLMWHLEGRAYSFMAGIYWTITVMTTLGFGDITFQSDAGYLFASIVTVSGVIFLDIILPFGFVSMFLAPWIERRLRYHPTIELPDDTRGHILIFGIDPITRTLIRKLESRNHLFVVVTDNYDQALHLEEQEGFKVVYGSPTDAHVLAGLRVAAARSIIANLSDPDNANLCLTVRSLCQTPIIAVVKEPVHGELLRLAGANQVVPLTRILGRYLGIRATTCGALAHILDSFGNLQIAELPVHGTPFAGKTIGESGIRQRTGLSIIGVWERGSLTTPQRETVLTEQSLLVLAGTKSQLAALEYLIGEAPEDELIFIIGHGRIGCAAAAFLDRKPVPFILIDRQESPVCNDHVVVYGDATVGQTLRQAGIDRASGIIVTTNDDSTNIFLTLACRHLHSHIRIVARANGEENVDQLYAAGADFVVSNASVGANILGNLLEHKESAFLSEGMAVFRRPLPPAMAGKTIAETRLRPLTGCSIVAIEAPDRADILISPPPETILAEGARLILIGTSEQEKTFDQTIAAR

stoichiometry N [1]: 4
Compound: full-length GsuK channel, L97D mutant (natural protein)

stoichiometry N [5]: 4
stoichiometry N [6]: 4
Compound: GsuK intracellular subunit (domain or fragment)

Second part, the compound before the results:

Compound: NC(=O)c1ccc[n+]([C@@H]2O[C@H](COP(=O)(O)OP(=O)(O)OC[C@H]3O[C@@H](n4cnc5c(N)ncnc54)[C@H](O)[C@@H]3O)[C@@H](O)[C@H]2O)c1 [NAD^+]
X-ray crystal structure, 3.2 Å (co-crystallization) [2]: we also co-crystallized the L97D mutant with ADP and NAD^+

Compound: full-length GsuK channel, wild type (with E52A and Q77E or R) (natural protein)
stoichiometry N [3]: 4
stoichiometry N [4]: 4

Compound: Nc1ncnc2c1ncn2[C@@H]1O[C@H](COP(=O)(O)OP(=O)(O)O)[C@@H](O)[C@H]1O [ADP]
X-ray crystal structure, 2.8 Å (co-crystallization) [7]: we also co-crystallized the L97D mutant with ADP and NAD^+
